The test deals with T1, human MICB expressed on cells (TRAMP-MICB) (human, UniProt Q29980 23-383).
T1 construct: also called TC2 derivative TRAMP-MICB
T1 sequence: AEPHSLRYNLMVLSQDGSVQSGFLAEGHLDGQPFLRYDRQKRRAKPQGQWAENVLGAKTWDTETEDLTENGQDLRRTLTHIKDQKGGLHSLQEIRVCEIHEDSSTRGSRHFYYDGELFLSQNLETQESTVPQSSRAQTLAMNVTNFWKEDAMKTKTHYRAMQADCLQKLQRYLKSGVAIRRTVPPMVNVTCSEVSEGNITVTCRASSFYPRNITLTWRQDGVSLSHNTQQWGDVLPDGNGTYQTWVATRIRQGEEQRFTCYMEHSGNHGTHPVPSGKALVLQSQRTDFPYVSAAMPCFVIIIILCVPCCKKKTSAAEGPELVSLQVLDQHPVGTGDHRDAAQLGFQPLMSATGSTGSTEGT
Put plainly: flow cytometry on TRAMP-MICB cells, 2 ug/ml antibody, PE goat anti-mouse IgG. (In general: In flow cytometry, cells or beads pass a laser one at a time.)

Procedure: Cells were analyzed with BD FACSscan. Data were analyzed with CellQuest software.

B1: monoclonal antibody P2B10G5 (antibody, V domains shown)
VH: EVQLEESGPGLVKPSQSLSLTCTVTGYSITSDYAWNWIRQFPGNKLEWMGYISYSGSTNYNPSLKSRISITRDTSKNQFFLQLNSVITEDTATYYCARGGTYFDYWGQGTTLTVSS
VL: DIVLTQTTSYLSVSLGGRVTIACKASAHINNWLAWYQQKPGNAPRLLISDATSLETGVPSRFSGSGSGKDYTLSITSLQTEDVATYYCQHYWSTPWTFGGGTKLEIKR
notes: Mouse hybridoma antibody, IgG1 kappa, raised against recombinant soluble MIC; also called mAb B10G5; anti-sMIC
As for B1, the binding result was “binds”.
